Data taken from EP4582451A1.

Columns and labels:
[1] = molecular target: monkey thyroid-stimulating hormone receptor (TSHR) (monkey); assay: flow cytometry (FACS), 293 cells overexpressing monkey TSHR; negative control
[2] = molecular target: mouse thyroid-stimulating hormone receptor (TSHR) (mouse) (UniProt P47750); assay: flow cytometry (FACS), 293 cells overexpressing mouse TSHR; negative control
[3] = molecular target: human thyroid-stimulating hormone receptor (TSHR) (human) (UniProt P16473); assay: flow cytometry (FACS), 293 cells overexpressing human TSHR; negative control
human thyroid-stimulating hormone receptor (TSHR) (human), sequence (P16473 21-764): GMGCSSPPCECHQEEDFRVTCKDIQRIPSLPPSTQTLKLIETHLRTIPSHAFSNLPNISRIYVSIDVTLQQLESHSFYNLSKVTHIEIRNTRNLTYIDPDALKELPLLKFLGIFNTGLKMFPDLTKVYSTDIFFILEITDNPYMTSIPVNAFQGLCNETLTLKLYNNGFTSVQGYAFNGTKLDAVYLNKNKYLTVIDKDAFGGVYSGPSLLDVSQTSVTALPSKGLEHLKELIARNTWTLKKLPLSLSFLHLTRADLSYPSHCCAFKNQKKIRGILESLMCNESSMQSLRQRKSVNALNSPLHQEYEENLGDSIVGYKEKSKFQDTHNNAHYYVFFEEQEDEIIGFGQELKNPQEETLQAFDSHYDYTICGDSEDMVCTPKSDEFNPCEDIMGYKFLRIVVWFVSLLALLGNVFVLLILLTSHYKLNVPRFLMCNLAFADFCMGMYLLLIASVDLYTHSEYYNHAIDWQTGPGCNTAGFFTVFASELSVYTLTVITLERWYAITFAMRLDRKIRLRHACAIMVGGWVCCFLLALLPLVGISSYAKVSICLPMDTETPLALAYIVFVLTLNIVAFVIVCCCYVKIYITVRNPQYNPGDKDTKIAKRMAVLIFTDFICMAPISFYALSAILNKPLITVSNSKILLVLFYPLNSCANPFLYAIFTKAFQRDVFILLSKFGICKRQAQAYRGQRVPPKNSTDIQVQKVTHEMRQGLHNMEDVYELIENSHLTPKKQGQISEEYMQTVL

mouse thyroid-stimulating hormone receptor (TSHR) (mouse), sequence (P47750 22-764): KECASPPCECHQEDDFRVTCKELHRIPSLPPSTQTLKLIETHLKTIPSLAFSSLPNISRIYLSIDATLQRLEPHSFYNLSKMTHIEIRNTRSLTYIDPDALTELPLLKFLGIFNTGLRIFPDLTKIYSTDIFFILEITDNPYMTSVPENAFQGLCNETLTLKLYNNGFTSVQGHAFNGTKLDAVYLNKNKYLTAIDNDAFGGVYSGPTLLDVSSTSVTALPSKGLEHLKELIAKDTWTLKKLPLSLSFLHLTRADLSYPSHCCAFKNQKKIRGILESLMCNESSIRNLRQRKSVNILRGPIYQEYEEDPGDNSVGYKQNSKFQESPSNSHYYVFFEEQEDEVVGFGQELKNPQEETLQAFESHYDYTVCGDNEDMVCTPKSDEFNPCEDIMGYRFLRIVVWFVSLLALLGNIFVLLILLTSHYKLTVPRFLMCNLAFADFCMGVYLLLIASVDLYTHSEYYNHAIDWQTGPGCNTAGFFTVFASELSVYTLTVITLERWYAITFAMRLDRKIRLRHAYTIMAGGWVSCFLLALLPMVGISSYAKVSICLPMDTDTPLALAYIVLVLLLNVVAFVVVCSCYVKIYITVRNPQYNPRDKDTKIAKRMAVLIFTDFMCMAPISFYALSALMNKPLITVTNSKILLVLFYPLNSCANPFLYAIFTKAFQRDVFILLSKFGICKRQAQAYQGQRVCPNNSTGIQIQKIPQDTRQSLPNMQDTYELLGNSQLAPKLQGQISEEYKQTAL
monkey thyroid-stimulating hormone receptor (TSHR) (monkey), sequence (A0A2K5 entry or part of it limits assumed, form in doubt): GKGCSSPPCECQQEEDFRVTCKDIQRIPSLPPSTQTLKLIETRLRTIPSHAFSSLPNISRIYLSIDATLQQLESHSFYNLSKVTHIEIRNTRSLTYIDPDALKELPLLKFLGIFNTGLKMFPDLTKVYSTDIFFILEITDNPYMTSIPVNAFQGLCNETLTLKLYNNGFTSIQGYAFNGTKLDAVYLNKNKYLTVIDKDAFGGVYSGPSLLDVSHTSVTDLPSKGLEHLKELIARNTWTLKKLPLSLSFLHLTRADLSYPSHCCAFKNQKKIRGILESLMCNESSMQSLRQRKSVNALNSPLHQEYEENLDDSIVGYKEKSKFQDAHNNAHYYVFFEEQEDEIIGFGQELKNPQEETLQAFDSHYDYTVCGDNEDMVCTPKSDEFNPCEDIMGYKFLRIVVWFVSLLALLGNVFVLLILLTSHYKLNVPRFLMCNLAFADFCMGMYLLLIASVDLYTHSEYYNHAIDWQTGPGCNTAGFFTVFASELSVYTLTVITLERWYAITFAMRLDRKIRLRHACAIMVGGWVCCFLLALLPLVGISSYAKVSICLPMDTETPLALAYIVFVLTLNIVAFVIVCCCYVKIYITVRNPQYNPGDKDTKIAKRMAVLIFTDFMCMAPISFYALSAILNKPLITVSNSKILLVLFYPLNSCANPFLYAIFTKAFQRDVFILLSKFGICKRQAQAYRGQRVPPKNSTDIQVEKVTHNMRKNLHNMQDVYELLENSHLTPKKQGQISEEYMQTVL

Row | Max MFI [1] | Max MFI [2] | Max MFI [3] | Substance
1 | 3560 | 2130 | 3590 | hIgG1 negative control (Biointron B117901) (antibody)
2 | 1770 | 1530 | 1690 | hIgG4 negative control (Biointron B107804) (antibody)
